target: SHP2-C SH2; experiment: SH2 binding enrichment of the phosphorylated peptide, bacterial display (enrichment ratio); higher = better substrate or ligand; peptides without Tyr show the background
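For SH2 binding enrichment of the phosphorylated peptide, bacterial display in this document: peptide library displayed on the E. coli surface as eCPX fusions, selected cells deep-sequenced, score is each peptide's frequency after selection divided by its frequency in the input.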

Row | SH2 binding enrichment | Sequence
1 | 0.497 | VIEQRYNETWL [SLC2A4_Y56_S55R]
2 | 0.685 | KCCCIYEKPRS [PPP1R11_Y64_A69S]
3 | 0.757 | SAPDSYIRIGN [SLC38A4_Y27_G29R]
4 | 0.842 | LFSDHYSPSGR [TMPRSS12_Y23_YF]
5 | 1.33 | LAIERYVVVSK [RHO_Y136_C140S]
6 | 0.472 | FSGQVYRQRRK [TH_Y230_D227G]
7 | 0.872 | FGVVGYLAIMF [RNF175_Y155]
8 | 0.578 | DFPIGYPSFLA [TBCK_Y153_YF]

Second part, the sequence before the results:

Row | Sequence | SH2 binding enrichment
9 | AKLKDYFIFNK [CCDC42_Y149_YF] | 0.847
10 | YTGDIYSSSNL [LZTR1_Y141_N143S] | 0.697
11 | GIVEDYRPRFF [ACVRL1_Y421_P424R_YF] | 0.832
12 | SILAVYSKDIY [PANK2_Y400_N404I] | 0.903
13 | YEEDSYVKRSQ [RET_Y905] | 0.514
14 | CRAVKYLQMVG [AVPR2_Y117] | 1.24
15 | NFFEFYVDDPL [GCHFR_Y48_P53L_YF] | 0.585
16 | MFCAGYDTKQE [F10_Y407] | 0.727
17 | IGLHAYGDQFR [IDH1_Y135_R132L_YF] | 0.449
18 | MIHSAYALGGL [CPS1_Y590_R587H] | 0.64
19 | NVGGKYSFLKV [GRM3_Y478_YF] | 1.46
20 | DASAVYLRDFQ [PLCG2_Y242_H244R] | 0.553
21 | KLSFSYGWALQ [ALDOB_Y302_R304W] | 0.67
22 | RIGRKYKRVRF [F8_Y442_K444R] | 0.533

target: Grb2 SH2 (UniProt P62993); experiment: as above

Row | SH2 binding enrichment | Sequence
23 | 0.92 | VIEQRYNETWL [SLC2A4_Y56_S55R]
24 | 0.708 | KCCCIYEKPRS [PPP1R11_Y64_A69S]
25 | 0.79 | SAPDSYIRIGN [SLC38A4_Y27_G29R]
26 | 0.989 | LFSDHYSPSGR [TMPRSS12_Y23_YF]
27 | 0.627 | LAIERYVVVSK [RHO_Y136_C140S]
28 | 0.675 | FSGQVYRQRRK [TH_Y230_D227G]
29 | 1.11 | FGVVGYLAIMF [RNF175_Y155]
30 | 0.635 | DFPIGYPSFLA [TBCK_Y153_YF]

More lines, now with the values behind:

Row | Sequence | SH2 binding enrichment
31 | AKLKDYFIFNK [CCDC42_Y149_YF] | 1.37
32 | YTGDIYSSSNL [LZTR1_Y141_N143S] | 1.03
33 | GIVEDYRPRFF [ACVRL1_Y421_P424R_YF] | 0.985
34 | SILAVYSKDIY [PANK2_Y400_N404I] | 0.897
35 | YEEDSYVKRSQ [RET_Y905] | 0.719
36 | CRAVKYLQMVG [AVPR2_Y117] | 0.964
37 | NFFEFYVDDPL [GCHFR_Y48_P53L_YF] | 0.686
38 | MFCAGYDTKQE [F10_Y407] | 0.65
39 | IGLHAYGDQFR [IDH1_Y135_R132L_YF] | 0.703
40 | MIHSAYALGGL [CPS1_Y590_R587H] | 0.883
41 | NVGGKYSFLKV [GRM3_Y478_YF] | 1.02
42 | DASAVYLRDFQ [PLCG2_Y242_H244R] | 0.95
43 | KLSFSYGWALQ [ALDOB_Y302_R304W] | 0.921
44 | RIGRKYKRVRF [F8_Y442_K444R] | 0.554

target: c-Src SH2; experiment: as above

Row | SH2 binding enrichment | Sequence
45 | 0.605 | VIEQRYNETWL [SLC2A4_Y56_S55R]
46 | 0.602 | KCCCIYEKPRS [PPP1R11_Y64_A69S]
47 | 0.814 | SAPDSYIRIGN [SLC38A4_Y27_G29R]
48 | 0.554 | LFSDHYSPSGR [TMPRSS12_Y23_YF]
49 | 1.51 | LAIERYVVVSK [RHO_Y136_C140S]
50 | 0.244 | FSGQVYRQRRK [TH_Y230_D227G]
51 | 0.653 | FGVVGYLAIMF [RNF175_Y155]
52 | 0.364 | DFPIGYPSFLA [TBCK_Y153_YF]

Continued, sequence first:

Row | Sequence | SH2 binding enrichment
53 | AKLKDYFIFNK [CCDC42_Y149_YF] | 0.846
54 | YTGDIYSSSNL [LZTR1_Y141_N143S] | 0.592
55 | GIVEDYRPRFF [ACVRL1_Y421_P424R_YF] | 0.468
56 | SILAVYSKDIY [PANK2_Y400_N404I] | 0.726
57 | YEEDSYVKRSQ [RET_Y905] | 1.43
58 | CRAVKYLQMVG [AVPR2_Y117] | 0.521
59 | NFFEFYVDDPL [GCHFR_Y48_P53L_YF] | 0.485
60 | MFCAGYDTKQE [F10_Y407] | 0.495
61 | IGLHAYGDQFR [IDH1_Y135_R132L_YF] | 0.419
62 | MIHSAYALGGL [CPS1_Y590_R587H] | 0.716
63 | NVGGKYSFLKV [GRM3_Y478_YF] | 0.976
64 | DASAVYLRDFQ [PLCG2_Y242_H244R] | 0.471
65 | KLSFSYGWALQ [ALDOB_Y302_R304W] | 0.558
66 | RIGRKYKRVRF [F8_Y442_K444R] | 0.302

test system: c-Abl (mouse); experiment: phosphorylation enrichment, bacterial display (enrichment ratio); higher = better substrate or ligand; peptides without Tyr show the background;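 also: 11-residue human phosphosite peptides and single-mutation variants displayed on the E. coli surface, counted by deep sequencing, each peptide's frequency after selection divided by its frequency in the unselected input library; frequency after pTyr selection over input frequency; kinase dosed for 20-30% of maximal phosphorylation in three min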

Row | Sequence | phosphorylation enrichment
67 | AKLKDYFIFNK [CCDC42_Y149_YF] | 0.435
68 | YTGDIYSSSNL [LZTR1_Y141_N143S] | 1.97
69 | VIEQRYNETWL [SLC2A4_Y56_S55R] | 0.659
70 | GIVEDYRPRFF [ACVRL1_Y421_P424R_YF] | 0.681
71 | SILAVYSKDIY [PANK2_Y400_N404I] | 0.537
72 | KCCCIYEKPRS [PPP1R11_Y64_A69S] | 3.97
73 | YEEDSYVKRSQ [RET_Y905] | 0.714
74 | SAPDSYIRIGN [SLC38A4_Y27_G29R] | 0.483
75 | LFSDHYSPSGR [TMPRSS12_Y23_YF] | 0.331
76 | CRAVKYLQMVG [AVPR2_Y117] | 0.522
77 | LAIERYVVVSK [RHO_Y136_C140S] | 0.935
78 | NFFEFYVDDPL [GCHFR_Y48_P53L_YF] | 0.78
79 | MFCAGYDTKQE [F10_Y407] | 0.793
80 | FSGQVYRQRRK [TH_Y230_D227G] | 0.789
81 | IGLHAYGDQFR [IDH1_Y135_R132L_YF] | 0.51
82 | MIHSAYALGGL [CPS1_Y590_R587H] | 0.373
83 | FGVVGYLAIMF [RNF175_Y155] | 1.37
84 | NVGGKYSFLKV [GRM3_Y478_YF] | 0.476
85 | DASAVYLRDFQ [PLCG2_Y242_H244R] | 0.986
86 | DFPIGYPSFLA [TBCK_Y153_YF] | 0.594
87 | KLSFSYGWALQ [ALDOB_Y302_R304W] | 1.19
88 | RIGRKYKRVRF [F8_Y442_K444R] | 2.59

— the supplement of paper PMC10065799, “High-throughput profiling of sequence recognition by tyrosine kinases and SH2 domains using bacterial peptide display” (eLife, 2023)
